Assay: label from the status in PepcDB records

Sequence | protein production
MKLNISAQSLNYTKYDNVIPSRDAILGLFDKVKSYLSYEQISHSSGLNDEPEKDALKKRLRAMERDGQLIFTRRKGYKRVDQSSLVTGKISIHVDGFGFLTYDDNEKDLFLPKHQLSHVFDGDIILVLKGHTQHQGRSNHRFIKIVERKTTHIVGLLKRKGSKLYLLPENSKLTQTIYVTPNELIAKNVGKLVHCKINTYPDYRQPTTVEVNEVLGRPGEAGIEVKLALRRHGINDKWDKDVLDAASAFGSQVEEKDKTSRVDYRDLPFVTIDGDDAKDFDDAVYGYQMDNGQWKLFVAIADVSHYVKPNDHLDLEAQSRATSVYFPGCVVPMLPESLSNGLCSLNPNEDRLVMVCEMTFDDEGNMLDSEFSEGIIHSHARLTYDDANRIIMQSSAKTTYQSNNPKNNIAQYLVNLHRLYLNLSGQRKVRGAIDFDTQELAFKLNNKKKIASIVPVVRNDAHRMIEEFMLCANVATAQFLELNKIPSLYRVHSGPQMKKLTSLRMLLAEKGLTLAGGDKPTSHDYNALLDQVRDLDECDIIRTLLLRSQSQAEYSPKNLGHFGLAYDAYAHFTSPIRRYPDLLIHRAIRAKLREKTTGKLRSLLMKLKPIRQLAGISNSYPYDTKEIEQLSVHCSHQSRQADEVSREVESALKCHYMKPFIGRNFMGSVSGVTHFGVFVELEENRIEGLIPLSSFQNGDFEFDAIKQKISSQTTTFTLGTQVNIIVKEIDSKQRKIIFNFA | failed
MKLQTTIQHEPKDGSGFDRGLREFFEYRDTGVNEATGGMFGAHVIRAIPGKEAKPTWHTHTVGFQLFYVLRGWVEFEYEDIGAVMLEAGGSAFQPPGVRHRELRHSDDLEVLEIVSPAGFATSVVDLEEARKP | not failed
MKLRKRRLCAATGVVLGALTALAALPPAAVASPHPGGHPPTARRALPLGPAGLPERRTTTTLQPGVTLTRIVRGNAEDPALHWTVEVSIPGGDTSPDPDAPPTALKDRASADELAAELRRDGFEARVEEVTTPATADYRGGTLGWRVRIGTFDSQTAATAERTRLRAAGYSGSAVYTGWDGAATDRGPWHVDVLTIDPRTFRGTLDASYGPDLENRETTSALAASAAATAAVNAGFFVLDPRAGAPGDPAGVGVYDGRLLSEPVAGRPALVVHDDGRRTEIARLTWQGRIATRAASLPLNGVNRVPGLIRNCGGSAGDTPTSLPLHDVTCTNPDELVAFTPDYGGRTPGGEGMEAVLDAHERVVELRSPRGGTIPRGGSSVQATGERVADLTATARVGERLRVSATLLDDRGRRMSTSPGTDIVNAGPELVRDGRVHVTPATDGMVHPGDPSWYYGWVHKRNPRTVAGVDAAGRTVLVTADGRSTDSLGLSIGESAEVARSLGLRDAVNLDGGGSTTMVAEGAVLNSPSDAAGERPVGDALLILPHRHRTRS | failed
MKLSDFIKTEDFKKEKHVPVIEAPEKVKKDEKVQIVVTVGKEIPHPNTTEHHIRWIKVFFQPDGDPYVYEVGRYEFNAHGESVQGPNIGAVYTEPTVTTVVKLNRSGTIIALSYCNIHGLWESSQKITVEE | not failed
MKLSMQMLKKSSLIPSDLTDTLLLVGSGWDDYSFKTSFTVMHFGPDAKKTELGTTKIGYKDQQHGWTSEKFSTKNISLSDDFFSLGQDVDFYRKLQGGLSADAALAVLQALKDVIADPLRLEDVKNEQVFRESLMRNVSWSVIRDQFKRVLAGKPELTSFHFSYQTNGDEQRAGVDVSFKVTPHSLPSTNVHVLIGRNGVGKTTILNDMVETILSDTTGRPHCGKFLIYDSLGSEPMPTDYFSSVVSVSFSAFDPFLFPADQPDRSKGVAYFYVGMQSPGEGPGKRPPKTTEALTEDFITSLESCFSQESKRQRWVAAIKRLESDSNFEDMDLAHLNELPTDEAIVKAHRIFSRMSSGHSIVLLTLTKLVEAVEEKTLVLMDEPESHLHPPLLSAFTRAISDLLQDRNGVAIIATHSPVVVQEAPGSCVWKLTRLRAEGRADRPERETFGENAGVLTREIFGLEVNKSGYHEVLQEAVNRGGTFESILADYQEQLGFEAQAILRKMVASRRES | failed
MKLSSEKLPKNPFSLSQYAAKQQKFFQWKKEKPDYYLHANLVDTALQFLKERIRRGDAMAYFLRGQLYFEEGWYEEALAQFEEIQEKDHQAIYQLGVMYYDGLGTIANAEKGVNYMRKILDSSCPQTMHLKFAAAYNLGRAYFEGKGVKRSDEEAERLWLLAADNGNPKASVKAQSILGLFYSMKEPKELEKAFFWHSEACGNGSLESQGALGLMYFYGQGIRQDTDAALHCLREAAERGNVYAQGTLVEYYYKMKFFTKCVSFSKRIADYDEVHDIPMIAHVTDCLPEFIIKGMAMAAFYHGRCLQLGLGIMKDEESAKHYYSKACRLNPTLADELHSLLIHQRI | failed
MKLTHSFIKQQARLGLNFFRYLLARMNHDRVNVNAGYLAYITLLSMVPMLTVLLSILSSFALFANAGEVIQDFVITHFVPAAGEVVKTALIEFVANTGKMTAVGGAFLFVAAIMLISNIDKNLNYIWRVQQKRRAVFSFSMYWMILTLGPILVGASIAATSYITSLKILDNEALSGVYNLFLRWLPFVLSYCAFVGLYLLVPNKKVHWQHAMLGALIAAILFELSKKGFAAYITQFPSYQLIYGALAAIPILFVWVYLCWLIVLVGAEVTAALGEREHWSDSQDMLHFAPLPKNEKE | not failed
MKLVVCSESDTAGQNIKDNLLTFADFEEKDVGEFKLYLSDEFYIAETKERLIYADHIDEKLAKYIDFEEILFASRHSSKDGRKIFTVHVSGNVGTADFGGKPYSLAKPSPQTMKNYVLALRERLDRKPEFEFTMEVTHHGPSEISKPSAFYEIGSTEEEWKDREAAEVVAEAMLDAIRAEKMDWNVAVGVGGTHYAPRQTEIMLTTTFTFGHNFAKYTFEHLTAEFLVKAVKLSEAEYIIIDEKSVNSAVKKIVNEAAEVAGVEVLKSKKVKKDFRLV | not failed
MKLWENGTFYQMTAEGEQVSAVLTKNGQIHAVGEVADLKKQYATEIDETIDLEGKVVFPGFVDAHIHLLWYGQALERLNLNQTTTKKEALALEHHHHHH | not failed
MKMDTGALTFQQKIYWLVKQIPLGRVATYGQIAALCGWPRHGRYVGYALYRVAPNSDIPWHRVVNAQGKISYAPQRRGTDELQRWRLAAEGIIFTAGDRINLRRYQWQPPATVYQQLIWPEGAATDSAKAKVG | failed
MKMDYKEQSHIIPTYKRFDIVLEKGQGVYLFDDKAKKYLDFSSGIGVCALGYNHAKFNAKIKAQVDKLLHTSNLYYNENIAAAAKNLAKASALERVFFTNSGTESIEGAMKTARKYAFNKGVKGGQFIAFKHSFHGRTLGALSLTANEKYQKPFKPLISGVKFAKYNDISSVEKLVNEKTCAIILESVQGEGGINPANKDFYKALRKLCDEKDILLIADEIQCGMGRSGKFFAYEHAQILPDIMTSAKALGCGLSVGAFVINQKVASNSLEAGDHGSTYGGNPLVCAGVNAVFEIFKEEKILENVNKLTPYLEQSLDELINEFDFCKKRKGLGFMQGLSLDKSVKVAKVIQKCQENALLLISCGENDLRFLPPLILQKEHIDEMSEKLRKALKSF | not failed
MKMISTIQKKETVMVAPIPAKRGRKPAVATAPATGQVQSLTRGLKLLEWIAESNGSVALTELAQQAGLPNSTTHRLLTTMQQQGFVRQVGELGHWAIGAHAFMVGSSFLQSRNLLAIVHPILRNLMEESGETVNMAVLDQSDHEAIIIDQVQCTHLMRMSAPIGGKLPMHASGAGKAFLAQLSEEQVTKLLHRKGLHAYTHATLVSPVHLKEDLAQTRKRGYSFDDEEHALGLRCLAACIFDEHREPFAAISISGPISRITDDRVTEFGAMVIKAAKEVTLAYGGMR | not failed
MKNFFNHIELKFANLLSKISFMLLMVVGLLMVYFLFREVYNLVLLAFLSESEVHYYDILESILSFFIFFEFLTLIITSLRNKGHVSLIFLLSLGITSLIRLLLTYHERLVGVLLIASAILILIIGVFVLKKFVFPNDDTADYF | failed
MKNFLETIEDMILIINREGRLLYANTAVPKKLGYPHEELMSMHILTITSAGKMAEGEKILAELFAGKKESLPLSLEKKEGTSIPAKARIWQGKWHNEPCLFAIIKDLSKEERASSPPFLEHHHHHH | not failed
MKNFVVKTIANAGALAVAVWLLDKITLTGDSTGKKIGTLIVVALVFGLVNFLVKPIVKVLTFPLFILTLGLITLVVNALMLLLTSWLADKLDLSFHVEGFWTAVVGGLIISVVSWALNVVLPDDKD | failed
MKNIVAGILAHVDSGKTTLSEAMLYQTGRIRKLGRVDHQDTYLDTDSQEKDRGITIFSKQAELTYEDMHIALLDTPGHVDFGTEMERTLQVLDYAVLVINGMDGVQSHTETLWKLLERYEIPVFIFVNKMDMTGYDREYLMDNIRHRLSDGCVDFLCEDAGEHIAMCDENMLERFLETGENREDDIAKAVADRKLFPCYFGSALKNDGVAELLDGMNRYVTEPRRTDEFGARVFKIGRDDKGERLTYMKITGGTLRLKDVLTLTGRQGEETLEKVNQIRVYSGAKYDMVDHVTAGCVCAVPGLVNTYGRQGIGACPDGELPSLEPVLSYKVMYPTDVDAVTMVSKLRQLEEEDPLLQVQWNEAAGEIYIKVMGQVQLEVVAQMVRDRFGIAITYGQGRITYKETIAAPVMGVGHFEPLRHYAEVHLLLEPMENGSGMCFDSICSEDVLDKNWQRLILTHLQEREFRGVLTGSPITDMKITITAGRAHQKHTEGGDFRQATYRAVRQGLMMAESVLLEPVYAFKIEVPQEYAGRVLADIVKMSGSMDGQEIAGETTVITGHAPVYTMREYYSELTAFSRGTGRLQVDIDGYQPCHNTEEVLAERHYDPELDRFNPSSSVFCAHGAGYLVDWYDVYENMHVKEDPGFEISGQLGYTEDGDVTDIPVNRPGKSVSDMSITDEELSEIFARTFGGDYKDKDVALNGRFRRTTSEYKVNGTSSRGSDGTAGGGASAGTAGDSSNSGYRGNGQYNKSQSRDRQPGNGPVVGSRPADRGIATPGAFKRRKSGEDYVIVDGYNVIFAWDTLRELSEHNIDSARGKLMDILSNYQGYMNCHLIVVFDGYKVKDNKGERFPYDDIEVVYTKEGETADAHIEKLTHELARKHKVTVVTSDGLEQIVTMGQGAIRMSSRDFKLEVERVNEHLRENYLKND | failed
MKNLLKRYVSIKNIIKVIELDFFANLKLRYYKLAMKLFKIEDEKFDEILLKAGMNAVSSTYLPVVFLTSIILGLIIFIIFLIVFNIFYAIFGLIGGIFIVILIGVLYPYVLAEEKAKSIDENLPYAFAFISALSSANIPVVEIFTSLSKEDIYGGMSKEAKEIVKDTKVFNYDIITTFLRRARITPSKKLSSVYYNIVASLIVGAEMKNIFHEIYERLMEDRKLELFEAIEKVEILSEFYVIACGMIPLFVVMTVPVASSISAILQTASLFGDPKLLPLTFYLWVPIASIIFMGLVYGILPKDFKLNVSLLDVLKEFDEPEIEGIKMKFKWKPVHFITLFFWMLSIISFMLFFIRKSIFKFHGTDFLMFGILFLILPFILTSYWHFIIENQKERYYPIFLNDLTMAVRSGMDIIRAMQVCARTNYGPLTKIVKKMAIQMSWGRPVNEVFADLERTEKSLIAKRIASILKECAVSGGDVKDILTSVTVHAYKLSEMKREISARQFIYVVVIYLSFFLYIGTSYIMVHSLLPTLLKNIHGLSVEFYKNYLFQGILIYSIFSGASLGILTERSIIAGIKHILLMLIVGYMLFKFYIGG | failed
MKNRALLLIDFQKGIESPTQQLYRLPAVLDKVNQRIAVYRQHHAPIIFVQHEETELPFGSDSWQLFEKLDTQPTDFFIRKTHANAFYQTNLNDLLTEQAVQTLEIAGVQTEFCVDTTIRMAHGLGYTCLMTPKTTSTLDNGHLTAAQIIQHHEAIWAGRFLTFLSL | not failed
MKNTPIERNVIDETINEFQIVDFSKATIREVKAIASKAEAVSGVEFIKMEMGVPGLPASAVGVKAEIEALQNGIASLYPDINGLPELKKEASDFIKAFINVDLSPEGCVPVTGSMQGTFASFLTCSQCDEKKDTILFIDPGFPVQKQQLVVMGQKYETFDVYDYRGDKLKEKLESYLRKGNISAIIYSNPNNPSWICLKDEELRIIGELATQYDVIVLEDLAYFAMDFRQDLSTPYQAPFQPSVAHYTDNYVLLISGSKAFSYAGQRIGVSCISDKLYHRSYPGLTKRYGGGTFGTVFIHRVLYALSSGTSHSAQYAMAAMLKAANEGQYNFLSEVKVYGDRAQKLKEIFLRHGFYLVYDNDLGDPIADGFYFTIGYPGMTSGELAKELMYYGVSAISLVTTGSHQEGLRACTSFIKDHQYAQLDERMKLFAEHHPIA | not failed
